Test results: patent publication US20250381223A1 (UTC THERAPEUTICS SHANGHAI, published 2025)

B1: anti-mesothelin scFv-M20 (scFv)
scFv: AIQMTQSPSSLSASVGNRVTITCRASQGISSAVAWYQQKPGKPPKLLISYASSLESGVPSRFSGSGSGTDFSLTISSLQPEDFATYFCQQFNSYPLTFGGGTKVEIKGGGGSGGGGSGGGGSQVQLVQSGAEVRKPGESLKISCKGSGYSFRDSWIAWVRQMPGQGLEWMGIIFPGDSNPIYSPSFQGQVTISADTSISTTFLQWRSLKASDSAIYYCARHAAWGAGWFDPWGQGTLVTVSS
notes: On mRNA-electroporated T cells as CAR
B2: 4.6 (bispecific antibody)
scFv-G4S-scFv: QVQLVQSGAEVKKPGSSVKVSCKASGGTFSSYAISWVRQAPGQGLEWMGMINPSGGTTSYAQKFQGRVTMTRDTSTSTVYMELSSLRPEDTAVYYCARGFRMDQWGQGTLVTVSSGGGGSGGGGSGGGGSQSALTQPPSASGSPGQSVTISCTGTSSDVGAYNFVSWYQQHPGNAPKLIIYDVRKRPSGIPDRFSASKSGNTASLTVSGLQADDEADYYCSSYAGNNNLVFGGGTKLTVLGGGGSQVKLQESGPGLVKPSETLSITCTVSGFSLSDYGVHWVRQSPGKGLEWLGVIWAGGGTNYNSALMSRKTISKDNSKSQVFLKMSSLTAADTAVYYCARDKGYSYYYSMDYWGQGTTVTVSSGGGGSGGGGSGGGGSDIQLTQSPSSLSVSVGDRVTISCRASESVEYYVTSLMQWYQQKPGQAPKLLIFAASNVESGVPSRFSGSGSGTNFTLTISSVQEEDFAMYFCQQSRKVPYTFGGGTKLEIK
notes: expressed from mRNA in T cells
B3: 4.1 (bispecific antibody)
scFv-G4S-scFv: DIQLTQSPSSLSVSVGDRVTISCRASESVEYYVTSLMQWYQQKPGQAPKLLIFAASNVESGVPSRFSGSGSGTNFTLTISSVQEEDFAMYFCQQSRKVPYTFGGGTKLEIKGGGGSGGGGSGGGGSQVKLQESGPGLVKPSETLSITCTVSGFSLSDYGVHWVRQSPGKGLEWLGVIWAGGGTNYNSALMSRKTISKDNSKSQVFLKMSSLTAADTAVYYCARDKGYSYYYSMDYWGQGTTVTVSSGGGGSQSALTQPPSASGSPGQSVTISCTGTSSDVGAYNFVSWYQQHPGNAPKLIIYDVRKRPSGIPDRFSASKSGNTASLTVSGLQADDEADYYCSSYAGNNNLVFGGGTKLTVLGGGGSGGGGSGGGGSQVQLVQSGAEVKKPGSSVKVSCKASGGTFSSYAISWVRQAPGQGLEWMGMINPSGGTTSYAQKFQGRVTMTRDTSTSTVYMELSSLRPEDTAVYYCARGFRMDQWGQGTLVTVSS
notes: as for B2
B4: 4.8 (bispecific antibody)
scFv-G4S-scFv: QSALTQPPSASGSPGQSVTISCTGTSSDVGAYNFVSWYQQHPGNAPKLIIYDVRKRPSGIPDRFSASKSGNTASLTVSGLQADDEADYYCSSYAGNNNLVFGGGTKLTVLGGGGSGGGGSGGGGSQVQLVQSGAEVKKPGSSVKVSCKASGGTFSSYAISWVRQAPGQGLEWMGMINPSGGTTSYAQKFQGRVTMTRDTSTSTVYMELSSLRPEDTAVYYCARGFRMDQWGQGTLVTVSSGGGGSDIQLTQSPSSLSVSVGDRVTISCRASESVEYYVTSLMQWYQQKPGQAPKLLIFAASNVESGVPSRFSGSGSGTNFTLTISSVQEEDFAMYFCQQSRKVPYTFGGGTKLEIKGGGGSGGGGSGGGGSQVKLQESGPGLVKPSETLSITCTVSGFSLSDYGVHWVRQSPGKGLEWLGVIWAGGGTNYNSALMSRKTISKDNSKSQVFLKMSSLTAADTAVYYCARDKGYSYYYSMDYWGQGTTVTVSS
notes: as for B2
B5: 8.6 (bispecific antibody)
scFv-G4S-scFv: QVQLVQSGAEVKKPGSSVKVSCKASGGTFSSYAISWVRQAPGQGLEWMGMINPSGGTTSYAQKFQGRVTMTRDTSTSTVYMELSSLRPEDTAVYYCARGFRMDQWGQGTLVTVSSGGGGSGGGGSGGGGSQSALTQPPSASGSPGQSVTISCTGTSSDVGAYNFVSWYQQHPGNAPKLIIYDVRKRPSGIPDRFSASKSGNTASLTVSGLQADDEADYYCSSYAGNNNLVFGGGTKLTVLGGGGSQVKLQQSGPGLVTPSQSLSITCTVSGFSLSDYGVHWVRQSPGQGLEWLGVIWAGGGTNYNSALMSRKSISKDNSKSQVFLKMNSLQADDTAVYYCARDKGYSYYYSMDYWGQGTTVTVSSGGGGSGGGGSGGGGSDIVLTQSPASLAVSLGQRATISCRASESVEYYVTSLMQWYQQKPGQPPKLLIFAASNVESGVPARFSGSGSGTNFSLNIHPVDEDDVAMYFCQQSRKVPYTFGGGTKLEIK
notes: as for B2
B6: 4.3 (bispecific antibody)
scFv-G4S-scFv: QVKLQESGPGLVKPSETLSITCTVSGFSLSDYGVHWVRQSPGKGLEWLGVIWAGGGTNYNSALMSRKTISKDNSKSQVFLKMSSLTAADTAVYYCARDKGYSYYYSMDYWGQGTTVTVSSGGGGSGGGGSGGGGSDIQLTQSPSSLSVSVGDRVTISCRASESVEYYVTSLMQWYQQKPGQAPKLLIFAASNVESGVPSRFSGSGSGTNFTLTISSVQEEDFAMYFCQQSRKVPYTFGGGTKLEIKGGGGSQSALTQPPSASGSPGQSVTISCTGTSSDVGAYNFVSWYQQHPGNAPKLIIYDVRKRPSGIPDRFSASKSGNTASLTVSGLQADDEADYYCSSYAGNNNLVFGGGTKLTVLGGGGSGGGGSGGGGSQVQLVQSGAEVKKPGSSVKVSCKASGGTFSSYAISWVRQAPGQGLEWMGMINPSGGTTSYAQKFQGRVTMTRDTSTSTVYMELSSLRPEDTAVYYCARGFRMDQWGQGTLVTVSS
notes: as for B2
B7: 4.2 (bispecific antibody)
scFv-G4S-scFv: DIQLTQSPSSLSVSVGDRVTISCRASESVEYYVTSLMQWYQQKPGQAPKLLIFAASNVESGVPSRFSGSGSGTNFTLTISSVQEEDFAMYFCQQSRKVPYTFGGGTKLEIKGGGGSGGGGSGGGGSQVKLQESGPGLVKPSETLSITCTVSGFSLSDYGVHWVRQSPGKGLEWLGVIWAGGGTNYNSALMSRKTISKDNSKSQVFLKMSSLTAADTAVYYCARDKGYSYYYSMDYWGQGTTVTVSSGGGGSQVQLVQSGAEVKKPGSSVKVSCKASGGTFSSYAISWVRQAPGQGLEWMGMINPSGGTTSYAQKFQGRVTMTRDTSTSTVYMELSSLRPEDTAVYYCARGFRMDQWGQGTLVTVSSGGGGSGGGGSGGGGSQSALTQPPSASGSPGQSVTISCTGTSSDVGAYNFVSWYQQHPGNAPKLIIYDVRKRPSGIPDRFSASKSGNTASLTVSGLQADDEADYYCSSYAGNNNLVFGGGTKLTVL
notes: as for B2
B8: 4.7 (bispecific antibody)
scFv-G4S-scFv: QSALTQPPSASGSPGQSVTISCTGTSSDVGAYNFVSWYQQHPGNAPKLIIYDVRKRPSGIPDRFSASKSGNTASLTVSGLQADDEADYYCSSYAGNNNLVFGGGTKLTVLGGGGSGGGGSGGGGSQVQLVQSGAEVKKPGSSVKVSCKASGGTFSSYAISWVRQAPGQGLEWMGMINPSGGTTSYAQKFQGRVTMTRDTSTSTVYMELSSLRPEDTAVYYCARGFRMDQWGQGTLVTVSSGGGGSQVKLQESGPGLVKPSETLSITCTVSGFSLSDYGVHWVRQSPGKGLEWLGVIWAGGGTNYNSALMSRKTISKDNSKSQVFLKMSSLTAADTAVYYCARDKGYSYYYSMDYWGQGTTVTVSSGGGGSGGGGSGGGGSDIQLTQSPSSLSVSVGDRVTISCRASESVEYYVTSLMQWYQQKPGQAPKLLIFAASNVESGVPSRFSGSGSGTNFTLTISSVQEEDFAMYFCQQSRKVPYTFGGGTKLEIK
notes: as for B2
B9: 4.4 (bispecific antibody)
scFv-G4S-scFv: QVKLQESGPGLVKPSETLSITCTVSGFSLSDYGVHWVRQSPGKGLEWLGVIWAGGGTNYNSALMSRKTISKDNSKSQVFLKMSSLTAADTAVYYCARDKGYSYYYSMDYWGQGTTVTVSSGGGGSGGGGSGGGGSDIQLTQSPSSLSVSVGDRVTISCRASESVEYYVTSLMQWYQQKPGQAPKLLIFAASNVESGVPSRFSGSGSGTNFTLTISSVQEEDFAMYFCQQSRKVPYTFGGGTKLEIKGGGGSQVQLVQSGAEVKKPGSSVKVSCKASGGTFSSYAISWVRQAPGQGLEWMGMINPSGGTTSYAQKFQGRVTMTRDTSTSTVYMELSSLRPEDTAVYYCARGFRMDQWGQGTLVTVSSGGGGSGGGGSGGGGSQSALTQPPSASGSPGQSVTISCTGTSSDVGAYNFVSWYQQHPGNAPKLIIYDVRKRPSGIPDRFSASKSGNTASLTVSGLQADDEADYYCSSYAGNNNLVFGGGTKLTVL
notes: as for B2
B10: 4.5 (bispecific antibody)
scFv-G4S-scFv: QVQLVQSGAEVKKPGSSVKVSCKASGGTFSSYAISWVRQAPGQGLEWMGMINPSGGTTSYAQKFQGRVTMTRDTSTSTVYMELSSLRPEDTAVYYCARGFRMDQWGQGTLVTVSSGGGGSGGGGSGGGGSQSALTQPPSASGSPGQSVTISCTGTSSDVGAYNFVSWYQQHPGNAPKLIIYDVRKRPSGIPDRFSASKSGNTASLTVSGLQADDEADYYCSSYAGNNNLVFGGGTKLTVLGGGGSDIQLTQSPSSLSVSVGDRVTISCRASESVEYYVTSLMQWYQQKPGQAPKLLIFAASNVESGVPSRFSGSGSGTNFTLTISSVQEEDFAMYFCQQSRKVPYTFGGGTKLEIKGGGGSGGGGSGGGGSQVKLQESGPGLVKPSETLSITCTVSGFSLSDYGVHWVRQSPGKGLEWLGVIWAGGGTNYNSALMSRKTISKDNSKSQVFLKMSSLTAADTAVYYCARDKGYSYYYSMDYWGQGTTVTVSS
notes: as for B2

What follows are binders tested against T1, mesothelin-Fc recombinant protein (human, UniProt Q13421 296-580, limits assumed) (assay: flow cytometry, T cells with CAR mRNA, mesothelin-Fc + PE-anti-IgG-Fc; Control 0.97).
T1 construct: construct not described; also called Meso-Fc; not shown: Fc part
T1 sequence (Q13421 other isoform, or with tags, fused parts or gaps limits assumed): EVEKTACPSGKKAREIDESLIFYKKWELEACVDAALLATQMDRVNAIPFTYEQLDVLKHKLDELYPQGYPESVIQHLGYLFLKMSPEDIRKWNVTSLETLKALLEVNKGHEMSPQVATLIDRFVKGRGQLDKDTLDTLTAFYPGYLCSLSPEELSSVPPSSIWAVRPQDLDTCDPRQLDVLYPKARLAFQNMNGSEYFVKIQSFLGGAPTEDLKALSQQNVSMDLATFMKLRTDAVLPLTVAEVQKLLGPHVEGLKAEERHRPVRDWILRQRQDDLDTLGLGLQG
Experimental: Mesothelin CAR mRNA obtained in Example 26 above was introduced into A549 tumor cells and T cells by electroporation, and the procedures are as follows: A549 tumor cells and T cells were collected and washed 3 times with the Opti-MEM medium. The cell pellet was resuspended in the Opti-MEM medium and the cell concentration was adjusted to 1×10e7 cells/mL. 10 μg of RNA was aliquoted into 1.5-mL EP tubes, 100 μL of T cells or A549 cells were added, followed by mixing well. 100 μL of cells mixed with RNA were added to the BTX electroporation cuvette and slight tapping was performed to avoid air bubbles. Electroporation was performed using a BTX instrument under the following parameters: for T cells: 500 V voltage, 0.7 ms; for A549 tumor cells: 300 V voltage, 0.5 ms. The cells were then transferred to a pre-warmed medium and cultured at 37° C. The binding of mesothelin CART cells to the mesothelin-Fc recombinant protein was determined by FACS staining. […] T cells without CAR molecules served as the control (“Mock”).
With B1 the “percent of cells in the gate” value was 75.6%.

Each binder was assayed against T2, CD40-Fc (human, UniProt P25942) (assay: flow cytometry of T cells co-electroporated with 15 µg diabody mRNA and 2 µg M12 CAR mRNA; CD40-Fc + PE-anti-Fc; E1 without mRNA: 0.56).
T2 construct: part fused to Fc; staining reagent of the flow cytometry; also called recombinant human CD40-Fc antigen protein
With B2 the “% of cells in the positive gate” value was 97.9.
In the case of B3, the “% of cells in the positive gate” value is reported as 95.8.
In the case of B4, the “% of cells in the positive gate” value is reported as 88.5.
B5 was tested, and the “% of cells in the positive gate” value was 98.3.
For B6, the “% of cells in the positive gate” value was 36.3.
In the case of B7, the “% of cells in the positive gate” value is reported as 97.7.
With B8 the “% of cells in the positive gate” value was 95.8.
For B9, the “% of cells in the positive gate” value was 51.
For B10, the “% of cells in the positive gate” value was 65.

Each binder was assayed against T2, CD40-Fc (assay: flow cytometry of T cells co-electroporated with 15 µg diabody mRNA and 0.5 µg 4D5.BBZ mRNA; CD40-Fc + PE-anti-IgG-Fc; E1 without mRNA: 0.27).
B2 was tested, and the “% of cells in the positive gate” value was 98.5.
With B3 the “% of cells in the positive gate” value was 95.3.
For B4, the “% of cells in the positive gate” value was 90.2.
B5 was tested, and the “% of cells in the positive gate” value was 98.6.
With B6 the “% of cells in the positive gate” value was 43.5.
With B7 the “% of cells in the positive gate” value was 98.2.
With B8 the “% of cells in the positive gate” value was 96.1.
With B9 the “% of cells in the positive gate” value was 55.4.
For B10, the “% of cells in the positive gate” value was 72.2.
